Experimental findings from US6673354B2, “Compositions and methods for treating papillomavirus-infected cells” (priority 1998, dated 2004) are described below.

In test [1] the target is T1, epitope tagged full length HPV16 E1 (EE16-E1) (human papillomavirus type 16, UniProt P03114 1-649).
T1 construct: range 1-649; also called EE-E1; HPV16 EE-E1
T1 sequence: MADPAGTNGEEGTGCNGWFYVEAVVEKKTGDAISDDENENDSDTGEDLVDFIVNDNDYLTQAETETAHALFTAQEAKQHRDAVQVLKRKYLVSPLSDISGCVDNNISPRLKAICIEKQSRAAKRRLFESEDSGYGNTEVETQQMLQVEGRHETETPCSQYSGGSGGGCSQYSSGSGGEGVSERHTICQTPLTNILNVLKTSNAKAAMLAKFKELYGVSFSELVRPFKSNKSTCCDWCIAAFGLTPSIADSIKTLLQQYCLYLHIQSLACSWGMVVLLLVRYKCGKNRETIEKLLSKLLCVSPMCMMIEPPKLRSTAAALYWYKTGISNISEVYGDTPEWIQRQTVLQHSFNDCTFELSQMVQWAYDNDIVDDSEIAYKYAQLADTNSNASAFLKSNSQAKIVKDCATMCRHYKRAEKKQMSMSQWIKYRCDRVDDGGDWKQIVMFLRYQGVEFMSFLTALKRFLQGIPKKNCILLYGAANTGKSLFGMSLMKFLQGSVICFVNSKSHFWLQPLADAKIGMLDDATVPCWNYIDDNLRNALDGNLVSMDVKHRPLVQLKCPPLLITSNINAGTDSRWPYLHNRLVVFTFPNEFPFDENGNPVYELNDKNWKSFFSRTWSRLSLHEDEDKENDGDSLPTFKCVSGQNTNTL
The test can be described thus: inhibition of HPV16 E1-E2 co-immunoprecipitation by peptide; competitor HPV16 E2.

The target of test [2] is T2, HPV11 EE-E1 (epitope tagged HPV11 E1) (human papillomavirus type 11, UniProt P04014 1-649).
T2 sequence: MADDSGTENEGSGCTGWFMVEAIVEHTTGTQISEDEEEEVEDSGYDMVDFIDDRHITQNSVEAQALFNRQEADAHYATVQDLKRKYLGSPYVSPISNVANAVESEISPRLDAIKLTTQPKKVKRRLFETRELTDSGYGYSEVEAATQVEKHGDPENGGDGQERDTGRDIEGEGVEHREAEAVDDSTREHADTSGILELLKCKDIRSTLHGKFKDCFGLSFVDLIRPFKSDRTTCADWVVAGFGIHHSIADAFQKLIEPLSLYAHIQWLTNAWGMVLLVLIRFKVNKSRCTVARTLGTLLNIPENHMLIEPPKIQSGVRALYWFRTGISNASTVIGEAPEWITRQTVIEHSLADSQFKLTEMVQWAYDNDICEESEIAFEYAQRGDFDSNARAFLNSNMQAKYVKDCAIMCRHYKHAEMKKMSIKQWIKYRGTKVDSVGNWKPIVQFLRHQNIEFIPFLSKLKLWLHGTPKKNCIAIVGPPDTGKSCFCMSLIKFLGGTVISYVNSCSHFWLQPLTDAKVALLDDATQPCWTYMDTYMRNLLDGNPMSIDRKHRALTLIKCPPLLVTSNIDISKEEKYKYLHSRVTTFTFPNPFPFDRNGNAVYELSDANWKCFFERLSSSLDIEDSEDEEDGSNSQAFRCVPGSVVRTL
Briefly: co-immunoprecipitation with anti-EE antibody, Western blot for E2.

Test [3] has as its target T3, EE-EIC (epitope tagged carboxy terminal domain of HPV16 E1) (human papillomavirus type 16, UniProt P03114 424-649).
T3 construct: range 424-649; limits uncertain; also called HPV-16 EE-EIC; EE-E1C
T3 sequence: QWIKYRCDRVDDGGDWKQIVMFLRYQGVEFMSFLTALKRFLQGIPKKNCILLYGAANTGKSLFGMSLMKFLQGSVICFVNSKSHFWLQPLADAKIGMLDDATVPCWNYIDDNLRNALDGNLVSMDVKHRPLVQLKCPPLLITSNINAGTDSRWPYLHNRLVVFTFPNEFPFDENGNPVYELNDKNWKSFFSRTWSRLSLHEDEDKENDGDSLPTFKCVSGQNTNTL
Briefly: in vitro E1-E2 competition binding assay with EE-EIC, 10-40 µM peptide, FIG. 14.

For orientation: IC50 means the concentration that inhibits the measured activity by half. A low value points to higher potency.

HIDYWKHMRLECAIYYKAREMGF (also called 23-mer) [E2N-WP23 (peptide of HPV16 E2 amino acids 29-51)]: the IC50 in test [1] is 5 µM.

B1: HPV16 E2 E39A mutant (other)
chain: METLCQRLNVCQDKILTHYENDSTDLRDHIDYWKHMRLACAIYYKAREMGFKHINHQVVPTLAVSKNKALQAIELQLTLETIYNSQYSNEKWTLQDVSLEVYLTAPTGCIKKHGYTVEVQFDGDICNTMHYTNWTHIYICEEASVTVVEGQVDYYGLYYVHEGIRTYFVQFKDDAEKYSKNKVWEVHAGGQVILCPTSVFSSNEVSSPEIIRQHLANHPAATHTKAVALGTEETQTTIQRPRSEPDTGNPCHTTKLLHRDSVDSAPILTAFNSSHKGRINCNSNTTPIVHLKGDANTLKCLRYRFKKHCTLYTAVSSTWHWTGHNVKHKSAIVTLTYDSEWQRDQFLSQVKIPKTITVSTGFMSI
notes: also called E39A replication defective HPV16 E2 mutant
For the molecule B1, the binding result in test [2] is “no binding”. For the molecule ERQIKIWFQNRRMKWKKGGWKHMRLECAIYYKAR (also called Antennapedia fusion peptide) [Ant-WP (Drosophila Antennapedia aa 42-58, Gly-Gly spacer, WP15)], the binding result in test [3] was “binds”. In turn, WKHMRLECAIYYKAR (also called 15-mer; wild-type peptide) [E2N-WP15 (peptide of HPV16 E2 residues 33-47)] registered an IC50 in test [1] of 7.5 µM.
